Laboratory results published in patent publication US8080523.
Like-named read-outs stand apart in the source and are kept apart here.

T1: Kv1.1 (Mus musculus (Mouse)), P16388
T1 chain: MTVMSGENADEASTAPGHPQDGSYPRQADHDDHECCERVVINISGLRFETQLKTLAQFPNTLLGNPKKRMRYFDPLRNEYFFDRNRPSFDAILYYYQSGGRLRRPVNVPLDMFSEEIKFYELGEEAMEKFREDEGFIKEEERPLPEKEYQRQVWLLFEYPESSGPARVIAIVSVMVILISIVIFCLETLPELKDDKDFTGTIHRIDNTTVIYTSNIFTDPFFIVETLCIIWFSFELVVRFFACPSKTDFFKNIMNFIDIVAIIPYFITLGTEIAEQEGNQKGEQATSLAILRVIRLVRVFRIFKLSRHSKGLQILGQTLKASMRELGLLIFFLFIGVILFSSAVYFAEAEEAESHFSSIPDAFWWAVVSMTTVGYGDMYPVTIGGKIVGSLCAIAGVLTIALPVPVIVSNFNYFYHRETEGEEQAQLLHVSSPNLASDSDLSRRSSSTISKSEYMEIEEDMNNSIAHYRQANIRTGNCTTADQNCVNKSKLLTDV

T2: Kv1.3 (cloned) (Mus musculus (Mouse)), P16390
T2 chain: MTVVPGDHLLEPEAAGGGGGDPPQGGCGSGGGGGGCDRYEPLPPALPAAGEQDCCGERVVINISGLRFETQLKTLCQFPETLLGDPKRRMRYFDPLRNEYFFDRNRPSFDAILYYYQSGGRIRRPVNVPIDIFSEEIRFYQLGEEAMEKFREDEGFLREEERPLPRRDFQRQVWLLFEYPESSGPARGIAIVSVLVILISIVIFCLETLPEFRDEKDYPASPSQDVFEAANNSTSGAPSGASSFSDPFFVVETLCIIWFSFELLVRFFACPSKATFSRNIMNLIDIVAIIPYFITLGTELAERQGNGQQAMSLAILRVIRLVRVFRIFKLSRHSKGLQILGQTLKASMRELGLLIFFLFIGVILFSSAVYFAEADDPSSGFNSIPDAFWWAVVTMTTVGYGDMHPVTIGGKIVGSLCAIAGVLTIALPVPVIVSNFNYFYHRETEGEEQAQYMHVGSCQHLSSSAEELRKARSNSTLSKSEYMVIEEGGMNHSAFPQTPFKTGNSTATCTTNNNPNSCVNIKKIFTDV


How the values were obtained:
[1] = target: T1, Kv1.1 (Mus musculus (Mouse)), P16388; assay: patch-clamp, block of channel current
[2] = target: T2, Kv1.3 (cloned) (Mus musculus (Mouse)), …; assay: patch-clamp, block of channel current
[3] = target: T1, Kv1.1 (Mus musculus (Mouse)), P16388; assay: patch-clamp, ratio of Kd values; reference margatoxin on Kv1.3
[4] = target: T2, Kv1.3 (cloned) (Mus musculus (Mouse)), …

Binder	Kd [1] [nM]	Kd [2] [nM]	fold selectivity for Kv1.3 over this channel [3] [fold]	Kd [4] [nM]
TIINVKCTSPKQCLPPCKAQFGQSAGAKCMNGKCKCYPH (modifications not checked) [Margatoxin, P40755 1-39]	10	0.11	9	
RSCIDTIPKSRCTAFQCKHSMKYRLSFCRKTCGTC (modifications not checked) [ShK toxin]				0.01
